From patent US20250195677A1
pKd: −log10 of the molar value.

Biological target: recombinant His-tagged cynomolgus PD-1 (Acro Biosystems) (cynomolgus) (UniProt B0LAJ3)
Test: SPR Carterra LSA, antibody coupled

Sequence of recombinant His-tagged cynomolgus PD-1 (Acro Biosystems) (cynomolgus) (B0LAJ3 entry or part of it limits assumed): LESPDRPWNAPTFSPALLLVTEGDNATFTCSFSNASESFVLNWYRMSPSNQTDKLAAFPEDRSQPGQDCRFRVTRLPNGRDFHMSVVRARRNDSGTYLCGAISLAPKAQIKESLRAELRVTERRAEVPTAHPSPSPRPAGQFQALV

In the case of KEYTRUDA® (pembrolizumab) (antibody), the pKd was 9.24.
OPDIVO® (nivolumab) (antibody) was tested, and the pKd was 8.19.
